Data on 2 molecules can be found in US20240279353A1 (KIROMIC BIOPHARMA, published 2024).

What all share (assay): EC50 binding assay (ELISA screening, format not stated)
On the technique in general: In an ELISA, binding on a coated surface is turned into a signal by an enzyme label.

Experiment [1] addresses Mesothelin Isoform 2 (IsoMSLN), as used in the EC50 binding assay (human) (UniProt Q13421).
Experiment [2] addresses Mesothelin Isoform 1, as used in the EC50 binding assay (human) (UniProt Q13421).
The target of experiment [3] is T1, Mesothelin Isoform 2 (IsoMSLN), as used in the EC50 binding assay (human, UniProt Q13421 37-598).
T1 construct: also called MSLN Isoform 2; mesothelin isoform-2 polypeptide
T1 sequence (Q13421 37-606 limits assumed, form in doubt): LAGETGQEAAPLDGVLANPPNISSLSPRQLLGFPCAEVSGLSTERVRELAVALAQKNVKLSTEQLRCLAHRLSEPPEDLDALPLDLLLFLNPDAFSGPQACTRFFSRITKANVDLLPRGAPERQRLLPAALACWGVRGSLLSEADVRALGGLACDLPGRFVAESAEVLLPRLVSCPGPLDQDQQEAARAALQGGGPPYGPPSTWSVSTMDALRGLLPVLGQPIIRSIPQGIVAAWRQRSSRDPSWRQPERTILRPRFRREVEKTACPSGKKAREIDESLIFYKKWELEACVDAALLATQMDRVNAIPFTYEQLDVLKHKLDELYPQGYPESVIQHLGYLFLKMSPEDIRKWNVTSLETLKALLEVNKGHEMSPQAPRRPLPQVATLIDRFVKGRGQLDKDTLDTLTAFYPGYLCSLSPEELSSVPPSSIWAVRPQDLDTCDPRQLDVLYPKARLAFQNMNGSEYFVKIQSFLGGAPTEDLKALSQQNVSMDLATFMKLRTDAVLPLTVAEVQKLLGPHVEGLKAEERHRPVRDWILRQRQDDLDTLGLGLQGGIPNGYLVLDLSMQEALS

Sequence of Mesothelin Isoform 1, as used in the EC50 binding assay (human) (Q13421 other isoform, or with tags, fused parts or gaps limits assumed): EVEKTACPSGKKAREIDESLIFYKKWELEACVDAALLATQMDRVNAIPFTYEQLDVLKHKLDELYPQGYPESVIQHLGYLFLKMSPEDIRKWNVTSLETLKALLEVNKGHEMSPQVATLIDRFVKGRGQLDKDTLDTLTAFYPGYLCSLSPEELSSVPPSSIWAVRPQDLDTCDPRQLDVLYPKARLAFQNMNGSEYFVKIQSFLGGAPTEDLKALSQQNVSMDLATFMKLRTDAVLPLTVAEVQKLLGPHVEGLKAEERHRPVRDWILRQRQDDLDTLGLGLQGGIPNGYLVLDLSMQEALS
Sequence of Mesothelin Isoform 2 (IsoMSLN), as used in the EC50 binding assay (human) (Q13421 37-606 limits assumed, form in doubt): as the sequence (Q13421 37-606 limits assumed, form in doubt) above

Broadly, the EC50 is the concentration that produces a half-maximal response. For “anti-MSLN antibody clone K1 (commercially available)”, the EC50 in experiment [1] was 0.11 µg/mL; in experiment [2], 0.15 µg/mL.

B1: anti-IsoMSLN monoclonal antibody clone 1B6 (antibody, V domains shown)
VH: EVKLVESGGGLVKPGGSLKLSCEASGFTFSRYAMSWVRHTPEKRLAWVASITFGGDPYYPDGLKGRFTISRDNTRNILYLQMNSLRSEDTAMYYCVRHESWFAYWGQGTLVTVSA
VL: DVLMTQTPLSLPVSLGEQVSISCRSSQTIVHTDGNIYLEWYLQNPGQSPRLLIYKISNRFSGVPDRFSGSGSGTDFTLKISRVEAEDLGIYYCFQASHVPYTFGGGTKLEIK
notes: also called IB6
For the molecule B1, the EC50 in experiment [3] is 0.073 µg/mL.
